Measured values as given in patent US20130079280A1.

Target: Murine CD40L on the Th2 cell line D10.G4.1 (murine) (UniProt P27548)
Assay: cell-based or functional assay

Sequence of Murine CD40L on the Th2 cell line D10.G4.1 (murine) (P27548 whole entry): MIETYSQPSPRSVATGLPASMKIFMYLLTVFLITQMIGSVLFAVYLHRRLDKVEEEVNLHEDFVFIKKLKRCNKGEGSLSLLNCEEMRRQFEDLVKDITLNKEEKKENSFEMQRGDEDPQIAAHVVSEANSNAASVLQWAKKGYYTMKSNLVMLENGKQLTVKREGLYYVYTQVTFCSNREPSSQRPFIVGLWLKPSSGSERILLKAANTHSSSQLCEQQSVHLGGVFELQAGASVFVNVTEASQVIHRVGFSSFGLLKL

Substance MR1, anti-murine CD40L antibody has an IC50, inhibition of CD86 expression on CD19 gated B cells of 100 pM.
